Residue numbers refer to the chain shown, from its start.
B1: 3E3 (antibody, V domains shown)
VH: QVQLQQPGAVLVKPGASVRMSCKASGYTFPYYNVHWVKRTPGQGLEWIGLIYPDNGDTSYNQKFTGKATLTADTSSSTAYMQLSSLTSEDSAVYYCARGGLDYWGQGTTLTVSA
VL: DVQITQSPASLSASVGETVTITCGASENIYGALNWYQRKQGKSPQLLIYGATNLADGMSSRFSGSGSGRQYSLKISSLHPDDVATYYCQNVLSTPYTFGGGTKLEIK
B2: 1C10 (antibody, V domains shown)
VH: B1 VH with P7S, V10E, R19K, P30R, V34M, T65K, T109S, A114S
VL: DIVMTQSPASLSASVGETVTITCRASGNIHNYLAWYQQKQGKSPQLLVYNAKTLADGVPSRFSGSGSGTQYSLKINSLQPEDFGSYYCQHFWSTPYTFGGGTKLEMK
B3: 1A3 (antibody, V domains shown)
VH: QVQLQQPGAELVKPGASVKMSCKASGYTFASYNLHWVKQTPGQGLEWIGLIYPENGDTSYNQKFKGKATLTADKSSSTAYIQLSSLTSEDSAVYFCARGGFDYWGQGTTLTVSQ
VL: B1 VL with V2I, I4M
B4: 3G10 (antibody, V domains shown)
VH: EVQLQQSGPELVKPGASVKMSCKASGYTFATYNMHWVKQTTGQGLEWIGAIYPDNGDTFYNRKFKDKATLTADKSSTTAYMQLSSLTSEDSAVYYCARGDFAYWGQGTLVTVSA
VL: B1 VL with Q3L, I4M, I106M
B5: 3E1 (antibody, V domains shown)
VH: QVQLQQPGAEVVKPGASVKMSCKASGYTFTDYYIHWVKQTPGQGLEWIGAIYPDNGDTSYNQKFKVKATLTADKSSSTAYMQLSSLTSEDSAVYYCARAFTYWGQGTLVTVSA
VL: B1 VL with V2I, Q3L
B6: 3H9 (antibody, V domains shown)
VH: B1 VH with Q1E, V2I, P7S, V10E, R19K, P30S, Y31F, V34M, T65K, A114S
VL: DIVLTQSPASLSVSVGETVTITCRASENIYSNLAWYQQKQGKSPQLLVYAATNLADGVPSRFSGSGSGTQYSLKINSLQSEDFGSYYCQHFWGTPYTFGGGTKLELK
B7: 3B7 (antibody, V domains shown)
VH: B1 VH with Q1E, P7S, V10E, R19K, P30R, V34M, T65K, L101F, A114S
VL: B1 VL with V2I, I4M, I106L
B8: 1G6 (antibody, V domains shown)
VH: B1 VH with Q1E, V2I, P7S, V10E, R19K, P30R, V34M, T65K, T109S, A114S
VL: NIVMTQSHKFMSTSVGDRVSITCKASQDVNTDVAWYQQKPGQSPKLLIYSASYRYTGVPTRFTGSGSGTDFTFTISGVQAEDLADYYCQQHYNTPYTFGGGTKLELK
B9: 3C9 (antibody, V domains shown)
VH: B1 VH with Q1E, V2I, P7S, V10E, R19K, T28I, P30R, V34M, T65K, A114S
VL: B1 VL with V2I, I4M, T5I
B10: 3C7 (antibody, V domains shown)
VH: EIQLQQSGAELVKPGASVKMSCKASGYIFRNYYIHWVKRTPGQGLEWIGAIYPDNGDTSYNQRFKVKATLTADTSSSTAYMQLSSLTSEDSAVYYCARAFTYWGQGTTLTVSS
VL: B1 VL with V2I, I4M, T5I
B11: 2B2 (antibody, V domains shown)
VH: B3 VH with V2L, P7S, G66D, S77T, T87A, Q114S
VL: DIVMTQSQKFMSTSVGDRVSVTCKASQNVGTNVAWYQQKPGQSPKALIYSASYRYSGVPDRFTGSGSGTDYTLTISSVQAEDLALYYCQQHYSTPYTFGGGTKLELK
B12: 3E2 (antibody, V domains shown)
VH: EIQLQQSGAELVKPGASVKMSCKASGYTFSFYNMHWVKRTPGQGLEWIGLIYPDNGDTSYNQKFKGKATLTADTSSSTAYMQLSSLTSEDSAVYYCARGGLDYWGQGTSLTVSS
VL: B11 VL with D1N, S56T, Y71F, L73F, L85V, L106I

What follows are binders tested against human FGFR2b on KATO III cells (human, UniProt P21802) (assay: FACS).
human FGFR2b on KATO III cells, sequence (P21802 22-377): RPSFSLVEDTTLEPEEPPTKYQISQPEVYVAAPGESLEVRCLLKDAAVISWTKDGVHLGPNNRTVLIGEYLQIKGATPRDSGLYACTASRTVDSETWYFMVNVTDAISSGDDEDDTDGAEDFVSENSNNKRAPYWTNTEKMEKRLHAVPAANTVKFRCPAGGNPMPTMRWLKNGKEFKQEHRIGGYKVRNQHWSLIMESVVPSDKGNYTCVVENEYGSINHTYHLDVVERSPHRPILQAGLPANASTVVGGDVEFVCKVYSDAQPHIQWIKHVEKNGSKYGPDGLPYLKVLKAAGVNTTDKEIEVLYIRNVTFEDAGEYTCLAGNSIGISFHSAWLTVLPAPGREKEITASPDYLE

| Binder | EC50 [µg/mL] |
| --- | --- |
| B1 | 0.376 |
| B2 | 0.152 |
| B3 | 0.0656 |
| B4 | 0.149 |
| B5 | 0.132 |
| B6 | 0.161 |
| B7 | 0.117 |
| B8 | 0.186 |
| B9 | 0.253 |
| B10 | 0.2 |
| B11 | 0.233 |
| B12 | 0.236 |

The binders below were run against T1, human FGFR2b extracellular domain (human, UniProt P21802) (assay: ELISA).
T1 sequence (P21802 22-377): as above

| Binder | EC50 [µg/mL] |
| --- | --- |
| B1 | 0.0273 |
| B2 | 0.0159 |
| B3 | 0.00818 |
| B4 | 0.0276 |
| B5 | 0.0156 |
| B6 | 0.0278 |
| B7 | 0.0147 |
| B8 | 0.0235 |
| B9 | 0.0147 |
| B10 | 0.0166 |
| B11 | 0.0216 |
| B12 | 0.0235 |

Target: T2, mouse FGFR2b (mouse, UniProt P21803)
T2 chain: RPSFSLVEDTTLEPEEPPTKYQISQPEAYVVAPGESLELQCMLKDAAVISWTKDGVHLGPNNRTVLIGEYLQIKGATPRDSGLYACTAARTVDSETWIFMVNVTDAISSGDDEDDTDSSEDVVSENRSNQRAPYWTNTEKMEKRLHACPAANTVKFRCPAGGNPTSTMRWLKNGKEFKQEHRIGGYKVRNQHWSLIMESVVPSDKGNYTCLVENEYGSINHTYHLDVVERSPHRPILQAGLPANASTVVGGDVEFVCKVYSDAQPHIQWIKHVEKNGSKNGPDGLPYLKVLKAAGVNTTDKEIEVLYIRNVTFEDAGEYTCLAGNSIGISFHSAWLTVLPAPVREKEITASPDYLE
Test: BLI

| Binder | Kd [nM] |
| --- | --- |
| B1 | 52.7 |
| B2 | 75.6 |
| B3 | 99.8 |
| B4 | 41.9 |
| B5 | 21.8 |
| B6 | 23.8 |
| B7 | 33.9 |
| B8 | 42.2 |
| B9 | 9.95 |
| B10 | 8.71 |
| B11 | 53.5 |
| B12 | 36.5 |

These binders were tested against T1, human FGFR2b extracellular domain (assay: BLI).

| Binder | Kd [nM] |
| --- | --- |
| B1 | 8.18 |
| B2 | 11.1 |
| B3 | 12.2 |
| B4 | 6.25 |
| B5 | 4.5 |
| B6 | 5.69 |
| B7 | 7.6 |
| B8 | 3.97 |
| B9 | 2.7 |
| B10 | 3.99 |
| B11 | 6.18 |
| B12 | 4.45 |
